Results reported in publication PMC3607624 (Journal of molecular biology, 2011).

Columns and labels:
[1] = target: microtubules (tubulin heterodimer) (UniProt P02550 1-451); experiment: co-sedimentation
F-actin = F-actin (UniProt P68135 1-377); experiment: co-sedimentation

microtubules (tubulin heterodimer), sequence (P02550 whole entry, chain 1 of 2): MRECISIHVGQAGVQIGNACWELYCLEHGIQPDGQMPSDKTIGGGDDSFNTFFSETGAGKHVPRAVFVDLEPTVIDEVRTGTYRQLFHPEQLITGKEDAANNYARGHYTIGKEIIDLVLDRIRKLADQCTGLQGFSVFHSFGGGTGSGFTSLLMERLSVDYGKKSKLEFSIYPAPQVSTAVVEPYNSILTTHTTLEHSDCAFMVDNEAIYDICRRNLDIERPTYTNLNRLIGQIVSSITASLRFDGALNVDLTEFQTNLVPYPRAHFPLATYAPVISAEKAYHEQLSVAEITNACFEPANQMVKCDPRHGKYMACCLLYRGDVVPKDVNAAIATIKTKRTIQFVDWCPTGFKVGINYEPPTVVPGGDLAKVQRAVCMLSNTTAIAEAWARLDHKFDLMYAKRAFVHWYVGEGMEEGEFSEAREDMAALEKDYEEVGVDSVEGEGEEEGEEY
microtubules (tubulin heterodimer), sequence (P02554 whole entry, chain 2 of 2, further chain): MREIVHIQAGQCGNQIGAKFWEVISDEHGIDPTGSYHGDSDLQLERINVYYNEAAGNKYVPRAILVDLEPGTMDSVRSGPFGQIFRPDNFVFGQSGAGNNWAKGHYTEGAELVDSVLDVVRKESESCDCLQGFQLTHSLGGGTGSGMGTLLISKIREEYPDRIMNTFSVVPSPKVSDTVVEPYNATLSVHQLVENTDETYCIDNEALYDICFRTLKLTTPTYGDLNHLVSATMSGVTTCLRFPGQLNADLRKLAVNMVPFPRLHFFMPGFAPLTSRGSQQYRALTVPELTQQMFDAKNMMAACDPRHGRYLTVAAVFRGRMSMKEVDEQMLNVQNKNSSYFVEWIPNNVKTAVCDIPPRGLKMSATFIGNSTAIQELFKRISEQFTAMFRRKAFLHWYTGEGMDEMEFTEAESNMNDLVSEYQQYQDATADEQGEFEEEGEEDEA

B1: Dictyostelium myosin 7 N-terminal MyTH4/FERM domain (MF1) (domain or fragment, Dictyostelium discoideum, UniProt Q9U1M8 1085-1620, looked up)
chain: SATATGNNTPNSSSASASQSTNQVNPQPTVSVVELPQILNDEEISLYSFYDYANKNFNIEKLKQKDDIFSYQKSHIKSSLLVHSDAEQTKVAVEIFSKVLHYMNSNPLVSKKDPADFYSPVKFILTKGLAIESLRDEIYCQLIKQSTSNPIQDLNIRVWELIHFTCSTFPPTRKLIKYFAAYLKTTIQQSDVSKSVKDSAQASYFILQRFTLNGARKQVPSVTELESIKENRPIFVRITATDGSLKGLHIDSATTCQESSNDLSQRSRMRVNSKENGFTIIESFNGIERDIAPTDKLCDVLSKVENLQATLSSKIQVNFKFVFKKKLFFDNITNNVPTTSINVENEFYYHQLFNDLFNSNYCKDQDYQISIGSLKLQFESSDYTDEIRAWLPGNGRGKYFTTDIEKNRFDDFINKYKSHKGLSPEDAKKQMVQLLEKHPLANCSLVVCEHQSESLPYPKNFVLALNVNGINIYDPATSKMLESVKYSNQSQQNLKSDDKSVSIILENKSTLQAFTGDVQKLVSLIKEYSLYLRNNA
[1]
  Kd: 1.7 ± 0.5 µM
F-actin
  Kd: 13.7 ± 2.6 µM
